Where two headings read alike, the source gives them in different places.
Assays:
[1] = molecular target: photosystem I complex of Prochlorococcus marinus ecotype MED4 (Prochlorococcus marinus MED4 (endogenous in thylakoid membranes)); assay: atomic force microscopy
[2] = molecular target: photosystem I complex of Prochlorococcus marinus ecotype MED4 (Prochlorococcus marinus MED4 (endogenous in thylakoid membranes)); assay: atomic force microscopy; remark: listed apart in the source
[3] = molecular target: photosystem I complex of Prochlorococcus marinus ecotype MIT9313 (Prochlorococcus marinus MIT9313 (endogenous in thylakoid membranes)); assay: atomic force microscopy
[4] = molecular target: photosystem I complex of Prochlorococcus marinus ecotype SS120 (Prochlorococcus marinus SS120 (endogenous in thylakoid membranes)); assay: atomic force microscopy
[5] = molecular target: photosystem I complex of Synechocystis sp. PCC 6803; assay: negative stain TEM

Substance: photosystem I complex of Prochlorococcus marinus ecotype MED4
- ratio of PSI monomer equivalents in trimeric vs monomeric or dimeric PSI [1]: 5.3
- stoichiometry N [1]: 2
- stoichiometry N [2]: 3

Substance: photosystem I complex of Prochlorococcus marinus ecotype MIT9313
- ratio of trimeric to non-trimeric PSI [3]: 44.5
- stoichiometry N [3]: 3

Substance: photosystem I complex of Prochlorococcus marinus ecotype SS120
- stoichiometry N [4]: 3

Substance: photosystem I complex of Synechocystis sp. PCC 6803
- stoichiometry N [5]: 3

Source: PMC6699766
